Source: patent publication US20150196651A1 (published 2015)
Numbered stars: 1 amine (or outer) side, 2 acyl side, 3 side chain; on linkers, the order of the positions; unused ones are H or OH. Square brackets hold non-standard residues; d marks the D form. Side chains are listed from the residue outwards. Ends that are not written are not given here. * marks the point of attachment. γGlu = O=C(O)[C@H](CCC(=O)[*:2])N[*:1]; Palmitoyl = CCCCCCCCCCCCCCCC(=O)*; Myristoyl = CCCCCCCCCCCCCC(=O)*; Lauroyl = CCCCCCCCCCCC(=O)*; Decanoyl = CCCCCCCCCC(=O)*; Nle = CCCC[C@H](N)C(=O)O; Octanoyl = CCCCCCCC(=O)*; GABA = NCCCC(=O)O

How the values were obtained:
[1] = molecular target: T1, rat PrRP receptor in RC-4B/C cells (rat, UniProt Q64121 1-370); test: competition with 125I-rat PrRP31, RC-4B/C cells
T1 construct: whole, on cells; endogenous receptor of RC-4B/C cells (ATCC); also called rat receptor; GPR10 receptor expressed in rat hypophyseal cells
T1 sequence (looked up): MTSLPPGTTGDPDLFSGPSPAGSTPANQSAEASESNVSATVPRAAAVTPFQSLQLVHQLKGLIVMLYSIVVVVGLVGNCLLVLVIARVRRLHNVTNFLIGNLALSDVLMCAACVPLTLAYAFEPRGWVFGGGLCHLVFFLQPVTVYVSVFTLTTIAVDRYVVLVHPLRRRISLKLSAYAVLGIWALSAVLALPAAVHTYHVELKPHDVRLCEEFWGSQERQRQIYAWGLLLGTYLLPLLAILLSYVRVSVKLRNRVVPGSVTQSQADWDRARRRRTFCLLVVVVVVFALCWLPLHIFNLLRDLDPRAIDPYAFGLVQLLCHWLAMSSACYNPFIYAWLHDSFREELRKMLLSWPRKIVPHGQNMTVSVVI
Summary of the method: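 Incubation 60 min at room temperature; cells solubilized in 0.1 mol/l NaOH and bound radioactivity γ-counted. Run in duplicate, repeated at least three times.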

[2] = molecular target: T2, human PrRP receptor GPR10 (human, UniProt P49683 1-370); test: competition with 125I-human PrRP31, CHO cells with human GPR10
T2 construct: whole, on cells; also called GPR10 human receptor transfected in CHO cells; human GPR10 receptor
T2 sequence (looked up): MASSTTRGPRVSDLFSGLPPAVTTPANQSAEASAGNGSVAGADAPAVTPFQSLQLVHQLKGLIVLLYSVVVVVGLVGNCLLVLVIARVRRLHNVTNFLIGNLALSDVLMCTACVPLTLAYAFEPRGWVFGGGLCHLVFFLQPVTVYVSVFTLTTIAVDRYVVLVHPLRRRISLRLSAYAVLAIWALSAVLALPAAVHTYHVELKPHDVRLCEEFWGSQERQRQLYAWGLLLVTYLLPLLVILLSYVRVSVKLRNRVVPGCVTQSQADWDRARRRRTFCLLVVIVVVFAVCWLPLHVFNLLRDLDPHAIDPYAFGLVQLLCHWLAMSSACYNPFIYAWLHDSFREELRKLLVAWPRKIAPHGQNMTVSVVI

Binder | % of PrRP31 [1] | Ki [1] | % of PrRP31 [2] | Ki [2]
Myristoyl-[Nle]ETRTPDINPAWYTGRGIRPVGRF-NH2 (SMILES CCCCCCCCCCCCCC(=O)N[C@@H](CCCC)C(=O)N[C@@H](CCC(=O)O)C(=O)N[C@H](C(=O)N[C@@H](CCCNC(=N)N)C(=O)N[C@H](C(=O)N1CCC[C@H]1C(=O)N[C@@H](CC(=O)O)C(=O)N[C@H](C(=O)N[C@@H](CC(N)=O)C(=O)N1CCC[C@H]1C(=O)N[C@@H](C)C(=O)N[C@@H](Cc1c[nH]c2ccccc12)C(=O)N[C@@H](Cc1ccc(O)cc1)C(=O)N[C@H](C(=O)NCC(=O)N[C@@H](CCCNC(=N)N)C(=O)NCC(=O)N[C@H](C(=O)N[C@@H](CCCNC(=N)N)C(=O)N1CCC[C@H]1C(=O)N[C@H](C(=O)NCC(=O)N[C@@H](CCCNC(=N)N)C(=O)N[C@@H](Cc1ccccc1)C(N)=O)C(C)C)[C@@H](C)CC)[C@@H](C)O)[C@@H](C)CC)[C@@H](C)O)[C@@H](C)O, lipidized shortened PrRP31 analog; also called 36 short) [analog no. 36] | 1100% | 0.45 nM | 71% | 5.48 nM
Myristoyl-QHSMETRTPDINPAWYTGRGIRPVGRF-NH2 (SMILES CCCCCCCCCCCCCC(=O)N[C@@H](CCC(N)=O)C(=O)N[C@@H](Cc1c[nH]cn1)C(=O)N[C@@H](CO)C(=O)N[C@@H](CCSC)C(=O)N[C@@H](CCC(=O)O)C(=O)N[C@H](C(=O)N[C@@H](CCCNC(=N)N)C(=O)N[C@H](C(=O)N1CCC[C@H]1C(=O)N[C@@H](CC(=O)O)C(=O)N[C@H](C(=O)N[C@@H](CC(N)=O)C(=O)N1CCC[C@H]1C(=O)N[C@@H](C)C(=O)N[C@@H](Cc1c[nH]c2ccccc12)C(=O)N[C@@H](Cc1ccc(O)cc1)C(=O)N[C@H](C(=O)NCC(=O)N[C@@H](CCCNC(=N)N)C(=O)NCC(=O)N[C@H](C(=O)N[C@@H](CCCNC(=N)N)C(=O)N1CCC[C@H]1C(=O)N[C@H](C(=O)NCC(=O)N[C@@H](CCCNC(=N)N)C(=O)N[C@@H](Cc1ccccc1)C(N)=O)C(C)C)[C@@H](C)CC)[C@@H](C)O)[C@@H](C)CC)[C@@H](C)O)[C@@H](C)O, lipidized shortened PrRP31 analog; also called 38 short) [analog no. 38] | 1330% | 0.37 nM | 56% | 6.93 nM
Decanoyl-TPDINPAWYASRGIRPVGRF-NH2 (SMILES CCCCCCCCCC(=O)N[C@H](C(=O)N1CCC[C@H]1C(=O)N[C@@H](CC(=O)O)C(=O)N[C@H](C(=O)N[C@@H](CC(N)=O)C(=O)N1CCC[C@H]1C(=O)N[C@@H](C)C(=O)N[C@@H](Cc1c[nH]c2ccccc12)C(=O)N[C@@H](Cc1ccc(O)cc1)C(=O)N[C@@H](C)C(=O)N[C@@H](CO)C(=O)N[C@@H](CCCNC(=N)N)C(=O)NCC(=O)N[C@H](C(=O)N[C@@H](CCCNC(=N)N)C(=O)N1CCC[C@H]1C(=O)N[C@H](C(=O)NCC(=O)N[C@@H](CCCNC(=N)N)C(=O)N[C@@H](Cc1ccccc1)C(N)=O)C(C)C)[C@@H](C)CC)[C@@H](C)CC)[C@@H](C)O) [analog no. 40] | 1200% | 0.41 nM | 129% | 3.02 nM
[Nle]ETRTPDINPAWYTGRGIRPVGRF-NH2 (N-terminus assumed; SMILES CCCC[C@H](N)C(=O)N[C@@H](CCC(=O)O)C(=O)N[C@H](C(=O)N[C@@H](CCCNC(=N)N)C(=O)N[C@H](C(=O)N1CCC[C@H]1C(=O)N[C@@H](CC(=O)O)C(=O)N[C@H](C(=O)N[C@@H](CC(N)=O)C(=O)N1CCC[C@H]1C(=O)N[C@@H](C)C(=O)N[C@@H](Cc1c[nH]c2ccccc12)C(=O)N[C@@H](Cc1ccc(O)cc1)C(=O)N[C@H](C(=O)NCC(=O)N[C@@H](CCCNC(=N)N)C(=O)NCC(=O)N[C@H](C(=O)N[C@@H](CCCNC(=N)N)C(=O)N1CCC[C@H]1C(=O)N[C@H](C(=O)NCC(=O)N[C@@H](CCCNC(=N)N)C(=O)N[C@@H](Cc1ccccc1)C(N)=O)C(C)C)[C@@H](C)CC)[C@@H](C)O)[C@@H](C)CC)[C@@H](C)O)[C@@H](C)O, shortened PrRP31 analog; also called 35 short) [analog no. 35] | 168% | 2.94 nM | 113% | 3.44 nM
Palmitoyl-SRTHRHSMEIRTPDINPAWYASRGIRPVGRF-NH2 (also called analog no; 43; compound 43) [palm-PrRP31 (analog 43)] | 519% | 0.95 nM | 90% | –
Lauroyl-TPDINPAWYASRGIRPVGRF-NH2 (SMILES CCCCCCCCCCCC(=O)N[C@H](C(=O)N1CCC[C@H]1C(=O)N[C@@H](CC(=O)O)C(=O)N[C@H](C(=O)N[C@@H](CC(N)=O)C(=O)N1CCC[C@H]1C(=O)N[C@@H](C)C(=O)N[C@@H](Cc1c[nH]c2ccccc12)C(=O)N[C@@H](Cc1ccc(O)cc1)C(=O)N[C@@H](C)C(=O)N[C@@H](CO)C(=O)N[C@@H](CCCNC(=N)N)C(=O)NCC(=O)N[C@H](C(=O)N[C@@H](CCCNC(=N)N)C(=O)N1CCC[C@H]1C(=O)N[C@H](C(=O)NCC(=O)N[C@@H](CCCNC(=N)N)C(=O)N[C@@H](Cc1ccccc1)C(N)=O)C(C)C)[C@@H](C)CC)[C@@H](C)CC)[C@@H](C)O) [analog no. 41] | 822% | 0.6 nM | 161% | 2.41 nM
Octanoyl-TPDINPAWYASRGIRPVGRF-NH2 (SMILES CCCCCCCC(=O)N[C@H](C(=O)N1CCC[C@H]1C(=O)N[C@@H](CC(=O)O)C(=O)N[C@H](C(=O)N[C@@H](CC(N)=O)C(=O)N1CCC[C@H]1C(=O)N[C@@H](C)C(=O)N[C@@H](Cc1c[nH]c2ccccc12)C(=O)N[C@@H](Cc1ccc(O)cc1)C(=O)N[C@@H](C)C(=O)N[C@@H](CO)C(=O)N[C@@H](CCCNC(=N)N)C(=O)NCC(=O)N[C@H](C(=O)N[C@@H](CCCNC(=N)N)C(=O)N1CCC[C@H]1C(=O)N[C@H](C(=O)NCC(=O)N[C@@H](CCCNC(=N)N)C(=O)N[C@@H](Cc1ccccc1)C(N)=O)C(C)C)[C@@H](C)CC)[C@@H](C)CC)[C@@H](C)O) [analog no. 39] | 530% | 0.93 nM | 201% | 1.94 nM
SRTHRHSMEIK([GABA-Palmitoyl])TPDINPAWYASRGIRPVGRF-NH2 [analog no. 53] | 190% | 1.26 nM | 42.5% | 9.19 nM
SETHRHSMEIK([γGlu-Palmitoyl])TPDINPAWYASRGIRPVGRF-NH2 [analog no. 55] | 236% | – | 83% | 4.72 nM
QHSMETRTPDINPAWYTGRGIRPVGRF-NH2 (shortened PrRP31 analog; also called 37 short) [analog no. 37] | 189% | 2.61 nM | 66% | 5.92 nM
